To fix the notation:
T1: human CLDN6, endogenously expressed on cancer cell lines (human, UniProt P56747 1-220)
T1 construct: also called Endogenous CLDN6+; CLDN6 on ARK2, OVCA429, UMUC4 cells
T1 sequence: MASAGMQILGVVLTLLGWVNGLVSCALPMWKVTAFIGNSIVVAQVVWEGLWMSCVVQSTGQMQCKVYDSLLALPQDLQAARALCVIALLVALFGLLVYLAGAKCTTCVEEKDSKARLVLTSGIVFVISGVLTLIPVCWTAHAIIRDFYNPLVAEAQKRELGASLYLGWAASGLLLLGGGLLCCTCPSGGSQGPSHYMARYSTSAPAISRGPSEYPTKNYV

T2: mouse CLDN6 fused to GFP, expressed on engineered HEK293T cells (mouse, UniProt Q9Z262 1-219)
T2 construct: whole, on cells; also called HEK293T-CLDN6-mGFP Artificial CLDN6+ (mouse); murine CLDN6; not shown: GFP tag
T2 sequence (looked up): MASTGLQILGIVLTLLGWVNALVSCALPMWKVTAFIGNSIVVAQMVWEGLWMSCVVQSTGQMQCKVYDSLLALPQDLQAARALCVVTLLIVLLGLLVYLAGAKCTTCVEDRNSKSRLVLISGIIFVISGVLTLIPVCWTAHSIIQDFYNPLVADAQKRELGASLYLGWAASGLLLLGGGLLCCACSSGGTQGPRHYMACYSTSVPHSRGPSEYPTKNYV

B1: AB9-chim (antibody, V domains shown)
VH: EVQLQQSGPELVKPGASVKMSCKASGYRFTDYNMHWVKQSHGKSLEWIGYINPNNGGTNYNQNFKGKATLTVNKSSSTAYMELRSLTSEDSAAYYCARDYLYFFDCWGQGTTLTVSS
VL: DIQMTQSPASQSASLGESVTITCLASQTIGTWLAWYQQKPGKSPQLLIYAAASLADGVPSRFSGSGSGTRFSFKISSLQAEDFVSYYCQQLYSIPRTFGGGTKLEIK
notes: Parental antibody prior to humanization ('chim'); also called pre-humanized form of AB9
B2: AB4-4 (antibody, V domains shown)
VH: QVQLVQSGAEVKKPGASVKMSCKASGYTFTSYTMHWIRQAPGQGLEWIGYINPSSTYTHYAQKFQGRATLTADTSTSTAYMELSSLRSEDTAVYYCSRGELGGFAYWGQGTLVTVSS
VL: DVVMTQSPLSLPVTLGQPASISCRSSQSLVHSDGNTYLNWYQQRPGQSPRLLIYKVSNRFSGVPDRFSGSGSGTDFTLKISRVEAEDVGVYYCSQSTHVPYTFGQGTKLEIK
notes: Humanized; also called humanized AB 4-4
B3: AB4-3 (antibody, V domains shown)
VH: B2 VH with M20V, I37V, I48M, A68V, L70M, A79V
VL: B2 VL
notes: Humanized; also called humanized AB 4-3
B4: AB4-5 (antibody, V domains shown)
VH: B2 VH with L45Q
VL: B2 VL
notes: Humanized; also called humanized AB 4-5
B5: AB9-4 (antibody, V domains shown)
VH: QVQLVQSGAEVKKPGASVKMSCKASGYRFTDYNMHWVRQAPGQGLEWIGYINPNNGGTNYAQKFQGRATLTVDTSTSTAYMELSSLRSEDTAVYYCARDYLYFFDCWGQGTLLTVSS
VL: DIQMTQSPSSLSASVGDRVTITCRASQTIGTWLAWYQQKPGKAPKLLIYAAASLADGVPSRFSGSGSGTDFTFTISSLQPEDFVTYYCQQLYSIPRTFGQGTKLEIK
notes: Humanized; also called humanized AB 9-4
B6: AB1-7 (antibody, V domains shown)
VH: QVQLVQSGAEVKKPGASVKMSCKASGYTFTTYTMHWVRQAPGQGLEWIGFINPSSGYTDYAQKFQGRVTLTADTSTSTVYMELSSLRSEDTAVYYCANGDYYVAYWGQGTLVTVSS
VL: DIQLTQSPSSLSASVGDRVTMTCTASSSVSSTYFHWYQQKPGKAPKLLIYSTSNLASGVPSRFSGSGSGTDYTLTISSMQPEDAATYYCHQYHRSPLTFGQGTKLEIK
notes: Humanized; also called humanized AB 1-7
B7: AB1-8 (antibody, V domains shown)
VH: B6 VH
VL: B6 VL with L48W
notes: Humanized; also called humanized AB 1-8
B8: AB1-4 (antibody, V domains shown)
VH: B6 VH with M20V, I48M, L70M
VL: B6 VL
notes: Humanized; also called humanized AB 1-4
B9: AB1-3 (antibody, V domains shown)
VH: B6 VH with M20V, I48M, L70M
VL: B6 VL with L4M, M21I, M79L, A84F
notes: Humanized; also called humanized AB 1-3
B10: AB1-5 (antibody, V domains shown)
VH: B6 VH with M20V, I48M, L70M
VL: B6 VL with L48W
notes: Humanized; also called humanized AB 1-5
B11: AB1-6 (antibody, V domains shown)
VH: B6 VH
VL: B6 VL with L4M, M21I, M79L, A84F
notes: Humanized; also called humanized AB 1-6
B12: AB3-chim (antibody, V domains shown)
VH: EVKLEESGGGLVQPGGSMKLSCVASGFTFSNYWMNWVRQSPEKGLEWVAQIRLKSDNYATHYAESVKGRFTISRDDSKRSVYLQMNNLRAEDTGTYYCNDGPPSGCWGQGTTLIVSS
VL: DIQMTQSPASLSASVGETVTITCRISENIYSYLAWYQQKQGKSPQLLVYNAKILVEGVPSRFSGSGSGTQFSLKINSLQPEDFGNYYCQHHYTVPWTFGGGTKLEIK
notes: Parental antibody prior to humanization ('chim'); also called pre-humanized form of AB3
B13: AB18-5 (antibody, V domains shown)
VH: QVQLVQSGAEVKKPGASVKISCKASGYSFTGYNMNWVRQAPGQGLEWIGNIDPYYGGSTYAQKFQGRATLTVDTSTSTAYMELSSLRSEDTAVYYCARERSGYVFSAMDYWGQGTLVTVSS
VL: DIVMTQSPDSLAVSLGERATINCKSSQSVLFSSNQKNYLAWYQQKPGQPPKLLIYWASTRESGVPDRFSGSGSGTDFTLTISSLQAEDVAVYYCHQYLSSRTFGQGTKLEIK
notes: Humanized; also called humanized AB 18-5
B14: AB18-6 (antibody, V domains shown)
VH: B13 VH
VL: DIVMTQSPDSLAVSLGERVTMNCKSSQSVLFSSNQKNYLAWYQQKPGQPPKLLIYWASTRESGVPDRFSGSGSGTDFTLTISSVQAEDVAVYYCHQYLSSRTFGQGTKLEIK
notes: Humanized; also called humanized AB 18-6
B15: AB3-2 (antibody, V domains shown)
VH: EVQLLESGGGLVQPGGSMRLSCAASGFTFSNYWMNWVRQAPGKGLEWVAQIRLKSDNYATHYADSVKGRFTISRDDSKNTVYLQMNSLRAEDTGVYYCNDGPPSGCWGQGTLLTVSS
VL: DIQMTQSPSSLSASVGDRVTITCRISENIYSYLAWYQQKPGKAPKLLIYNAKILVEGVPSRFSGSGSGTDFTLTISSLQPEDFATYYCQHHYTVPWTFGQGTKLEIK
notes: Humanized; also called humanized AB 3-2
B16: AB3-3 (antibody, V domains shown)
VH: B15 VH
VL: B15 VL with I48V, A84G
notes: Humanized; also called humanized AB 3-3
B17: AB3-5 (antibody, V domains shown)
VH: B15 VH with C106Y
VL: B15 VL with I48V, A84G
notes: Humanized; also called humanized AB 3-5
B18: AB3-4 (antibody, V domains shown)
VH: B15 VH with C106Y
VL: B15 VL
notes: Humanized; full-length IgG; also called humanized AB 3-4
B19: AB1-Chim (antibody, V domains shown)
VH: QVQLQQSAAELARPGASVKMSCKASGYTFTTYTMHWVKQRPGQGLEWIGFINPSSGYTDYNQKFKDRTTLTADKSSSTVYMQLSSLTSEDSAVYYCANGDYYVAYWGQGTLVTVSA
VL: QIVLTQSPAIMSASLGERVTMTCTASSSVSSTYFHWYQQKPGSSPKLWIYSTSNLASGVPRRFSGSASGTSYSLTISSMEAEDAATYYCHQYHRSPLTFGAGTKLELK
notes: Parental antibody prior to humanization ('chim'); also called pre-humanized form of AB1

Substitutions are numbered along the chain they refer to.

One assay deals with T1, human CLDN6, endogenously expressed on …. As to the kind of experiment: FACS, OVCA429 cells, 1.5 ug Ab. (In general: A flow cytometer gives signals particle by particle.)
B1: the FACS signal was determined as 3570.

As for B2, the FACS signal stood at 1200.

Consider B3, for which the FACS signal was 1160.

The molecule B4 showed an FACS signal of 1350.

With B5, the FACS signal came out at 1110.

The molecule B6 showed an FACS signal of 44700.

For B7, the FACS signal is 66000.

Turning to B8, the FACS signal is 34600.

B9: the FACS signal worked out at 27500.

Molecule B10 showed an FACS signal of 54300.

Molecule B11 had an FACS signal of 29900.

B12 gave an FACS signal of 138000.

In turn, B13 displayed an FACS signal of 4270.

In the case of B14, the FACS signal came to 6750.

Regarding B15, the FACS signal was 85900.

B16 yielded an FACS signal of 88700.

In the case of B17, the FACS signal is 2950.

In turn, B18 displayed an FACS signal of 2960.

Molecule B19 showed an FACS signal of 177000.

The target of another assay is T2, mouse CLDN6 fused to GFP, expressed on …. As to the kind of experiment: FACS, 293T clone with mouse CLDN6.
In turn, B2 displayed an FACS signal of 741.

With B3, the FACS signal is 671.

In turn, B4 yielded an FACS signal of 2000.

Turning to B5, the FACS signal was 1710.

Molecule B6 displayed an FACS signal of 99700.

The molecule B7 came in with an FACS signal of 122000.

Molecule B8 came in with an FACS signal of 75900.

B9: the FACS signal came to 89300.

With B10, the FACS signal stood at 128000.

Regarding B11, the FACS signal was determined as 77600.

For B12, the FACS signal is 67900.

In the case of B15, the FACS signal was 31700.

Molecule B16 yielded an FACS signal of 23000.

Consider B17, for which the FACS signal worked out at 783.

Take B18: the FACS signal is 1520.

B19: the FACS signal was found to be 514000.

The target in the next assay is T1, human CLDN6, endogenously expressed on …. As to the kind of experiment: FACS, ARK2 cells, 1.5 ug Ab.
B1 yielded an FACS signal of 4490.

As for B2, the FACS signal was found to be 1400.

Consider B3, for which the FACS signal was 1520.

With B4, the FACS signal came to 1200.

B5 had an FACS signal of 1550.

In turn, B6 showed an FACS signal of 11200.

Molecule B7 displayed an FACS signal of 17600.

Molecule B8 yielded an FACS signal of 10000.

As to B9, the FACS signal came out at 10800.

In turn, B10 yielded an FACS signal of 22400.

For B11, the FACS signal came out at 7740.

As for B12, the FACS signal stood at 29100.

As for B13, the FACS signal was determined as 1330.

Turning to B14, the FACS signal was determined as 1940.

In turn, B15 gave an FACS signal of 33600.

For B16, the FACS signal was 54900.

B17 had an FACS signal of 2910.

B18 had an FACS signal of 1460.

As for B19, the FACS signal amounted to 51900.

The target is the same in a further assay. Nature of the assay: FACS, ARK2 cells, 0.3 ug Ab.
B1: the FACS signal amounted to 3510.

With B2, the FACS signal amounted to 1050.

In turn, B3 yielded an FACS signal of 1190.

For the molecule B4, the FACS signal came out at 967.

On to B5, for which the FACS signal worked out at 1120.

With B6, the FACS signal was determined as 4440.

In the case of B7, the FACS signal was found to be 5810.

In turn, B8 returned an FACS signal of 3640.

In turn, B9 yielded an FACS signal of 2830.

B10 showed an FACS signal of 7490.

B11: the FACS signal turned out to be 2820.

Take B12: the FACS signal was found to be 17100.

Consider B13, for which the FACS signal stood at 1310.

B14 displayed an FACS signal of 1390.

Take B15: the FACS signal was determined as 14700.

As to B16, the FACS signal was found to be 1160.

Turning to B17, the FACS signal worked out at 1280.

With B18, the FACS signal was found to be 1320.

Turning to B19, the FACS signal amounted to 58800.

Values taken from patent publication US20220177583A1 (University of California, published 2022).
